Columns and labels:
[1] = molecular target: Anti-OVA IgG (rabbit-derived); experiment: ELISA: OVA coated, rabbit Anti-OVA IgG, then K-tag pG alone (negative control), then HRP-labeled anti-guinea pig IgG, TMB. The signal needs a second free IgG-binding site
[2] = molecular target: Anti-OVA IgG (rabbit-derived); experiment: ELISA: OVA coated, rabbit Anti-OVA IgG, then HRP-labeled anti-rabbit IgG instead of the hybrid, TMB (sample No. 8)
[3] = molecular target: Anti-OVA IgG (rabbit-derived); experiment: ELISA: OVA coated, rabbit Anti-OVA IgG, HRP-labeled anti-rabbit IgG. Signal against the no-antigen control
[4] = molecular target: Anti-OVA IgG (rabbit-derived); experiment: ELISA: OVA coated, rabbit Anti-OVA IgG, then wild-type pG sample (negative control), then HRP-labeled anti-guinea pig IgG, TMB. The signal needs a second free IgG-binding site

recombinant protein G with K-tag (K-tag pG), alone, not cross-linked to polymer
change in the absorbance at 370 nm (dO.D./min) [1]: < 0.03 dO.D./min

commercially available HRP-labeled anti-rabbit IgG (antibody)
change in the absorbance at 370 nm (dO.D./min) [2]: 0.18 dO.D./min
S/N ratio (No. 8 against No. 4 without antigen) [3]: 4.6

wild-type pG having no introduced K-tag (thrombin-treated K-tag pG)
change in the absorbance at 370 nm (dO.D./min) [4]: < 0.03 dO.D./min

— patent US20160251450A1
